# Experimental data from paper PMC8479633.
# How the values were obtained:
# [1] = biological target: SMAD2 linker-MH2 construct, non-phosphorylated (S2LMH2); assay: SAXS with ensemble optimisation
# [2] = biological target: phosphomimetic full-length SMAD2 (S2FLEEE) (UniProt Q15796); assay: SAXS with ensemble optimisation
# Sequence of phosphomimetic full-length SMAD2 (S2FLEEE) (from UniProt Q15796 1-467) (natural protein) (Q15796 whole entry): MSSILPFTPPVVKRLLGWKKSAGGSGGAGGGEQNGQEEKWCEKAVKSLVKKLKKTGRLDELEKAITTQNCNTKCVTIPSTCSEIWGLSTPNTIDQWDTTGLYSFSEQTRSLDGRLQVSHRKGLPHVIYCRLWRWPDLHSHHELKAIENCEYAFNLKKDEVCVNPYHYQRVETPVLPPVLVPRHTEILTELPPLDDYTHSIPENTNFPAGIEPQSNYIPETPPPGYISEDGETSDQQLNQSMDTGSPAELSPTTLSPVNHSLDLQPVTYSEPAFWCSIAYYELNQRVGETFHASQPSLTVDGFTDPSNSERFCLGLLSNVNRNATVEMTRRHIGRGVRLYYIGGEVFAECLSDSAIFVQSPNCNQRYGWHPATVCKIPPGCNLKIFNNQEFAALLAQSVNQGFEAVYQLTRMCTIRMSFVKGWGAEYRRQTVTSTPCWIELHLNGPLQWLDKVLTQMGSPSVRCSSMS
# Sequence of SMAD2 linker-MH2 construct, non-phosphorylated (S2LMH2) (domain or fragment) (Q15796 269-467): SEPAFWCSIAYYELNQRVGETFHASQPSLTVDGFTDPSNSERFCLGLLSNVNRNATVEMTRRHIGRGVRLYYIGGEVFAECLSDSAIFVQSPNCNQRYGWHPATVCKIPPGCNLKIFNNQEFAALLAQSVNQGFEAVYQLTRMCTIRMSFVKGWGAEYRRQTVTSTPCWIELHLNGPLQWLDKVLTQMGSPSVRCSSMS
percent of the population as dimer [1] [%],percent of the population as dimer [2] [%],percent of the population as trimer [2] [%],Substance
25,,,"SMAD2 linker-MH2 construct, non-phosphorylated (S2LMH2) (domain or fragment)"
,36,44.8,phosphomimetic full-length SMAD2 (S2FLEEE) (from UniProt Q15796 1-467) (natural protein)
